Assay results reported in US9994813, “Role for the perlman syndrome exonuclease Dis3l2 in the Lin28-let-7 pathway” (Children's Medical Center Corporation).
Substitutions are numbered along the chain they refer to.

Key:
[1] = molecular target: T1, Lin28A (UniProt Q8K3Y3 Q8K3Y3:1-209); assay: EMSA; settings: tags: 6xHis, E. coli; label: 5'-32P; hairpin with 3' oligoU tail
T1 sequence: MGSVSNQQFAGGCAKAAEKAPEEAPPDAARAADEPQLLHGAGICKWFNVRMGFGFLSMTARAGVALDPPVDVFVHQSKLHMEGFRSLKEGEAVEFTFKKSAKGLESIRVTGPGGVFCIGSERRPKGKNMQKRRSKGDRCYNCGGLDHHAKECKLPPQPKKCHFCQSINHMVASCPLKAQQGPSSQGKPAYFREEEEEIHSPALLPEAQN
Method: (§1) EMSA experiments were performed as described previously. Briefly, 1 nM of the indicated radiolabeled synthetic RNA was incubated in the binding buffer (50 mM Tris pH 7.6, 100 mM NaCl, 10 mM […], 1 unit/µl RNaseOUT) with varying concentrations of catalytically inert recombinant 6x-His Dis3L2 or recombinant 6x-His Lin28 in the absence of competitor RNA. Nucleoprotein complexes were resolved by 4-20% non-denaturing TBE gel electrophoresis (Biorad, #345-0059) and visualized by autoradiography.

[2] = molecular target: T2, Dis3l2 D389N (Mus musculus, UniProt Q8CI75 Q8CI75:1-870, D389N); assay: EMSA; 1 nM RNA, 50 mM Tris pH 7.6, 100 mM NaCl; settings: tags: 6xHis, E. coli; label: 5'-32P; hairpin with 3' oligoU tail
T2 sequence: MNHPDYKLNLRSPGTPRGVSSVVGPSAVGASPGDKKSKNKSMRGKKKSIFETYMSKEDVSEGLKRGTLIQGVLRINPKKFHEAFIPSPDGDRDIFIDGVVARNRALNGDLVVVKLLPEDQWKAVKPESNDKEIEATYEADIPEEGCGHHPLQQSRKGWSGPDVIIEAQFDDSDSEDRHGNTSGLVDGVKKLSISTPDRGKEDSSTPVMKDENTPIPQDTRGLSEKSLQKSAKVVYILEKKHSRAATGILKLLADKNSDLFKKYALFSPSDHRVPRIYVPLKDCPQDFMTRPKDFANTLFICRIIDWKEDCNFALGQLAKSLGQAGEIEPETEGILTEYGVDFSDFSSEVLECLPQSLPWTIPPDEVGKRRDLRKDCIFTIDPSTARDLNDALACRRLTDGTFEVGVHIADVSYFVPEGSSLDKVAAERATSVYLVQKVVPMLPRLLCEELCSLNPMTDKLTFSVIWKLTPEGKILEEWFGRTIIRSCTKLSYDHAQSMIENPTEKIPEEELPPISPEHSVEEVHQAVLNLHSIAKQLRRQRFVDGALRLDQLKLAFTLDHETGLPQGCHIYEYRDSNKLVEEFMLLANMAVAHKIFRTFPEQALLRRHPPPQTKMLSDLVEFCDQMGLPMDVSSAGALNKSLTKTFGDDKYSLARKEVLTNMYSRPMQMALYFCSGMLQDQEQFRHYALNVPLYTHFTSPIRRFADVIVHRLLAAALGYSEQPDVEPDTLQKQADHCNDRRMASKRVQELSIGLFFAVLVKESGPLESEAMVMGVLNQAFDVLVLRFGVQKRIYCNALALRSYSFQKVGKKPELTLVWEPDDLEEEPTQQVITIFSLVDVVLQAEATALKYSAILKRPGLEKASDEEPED
Method: as §1

[3] = molecular target: T3, Dis3l2 (recombinant 6xHis) (Mus musculus, UniProt Q8CI75 Q8CI75:1-870); assay: cleavage_in_vitro; relative RNA stability difference versus non-uridylated; 0.05 mM MgCl2, 50 mM KCl, pH 7.5, 37 C; settings: tags: 6xHis, pETDuet-1, E. coli; label: 5'-32P; hairpin with 3' oligoU tail
T3 sequence: T2 sequence with N389D
Method: RNA degradation assays were performed in a total of 20 µl reaction using 6.25 nM 5' end-labeled pre-miR-21, pre-let-7a-1, or pre-let-7a-1+14U RNA (see Table 2) together with Dis3l2 and/or Lin28A. The reactions were set up in the RNA degradation buffer (20 mM HEPES-KOH pH 7.5, 50 mM KCl, 0.05 mM MgCl2, 1 mM DTT) and incubated at 37° C. for 90 minutes. For time-course assays; recombinant 6x-His Dis3l2 was incubated with radiolabeled pre-let-7a-1 or pre-let-7a-1+14U. Bands from three independent experiments were quantified using ImageJ (NIH) and plotted using Prism (Graphpad). Values were fitted to one-phase decay curves with error bars representing +/- s.d. (n=3). For Uridylation-stimulated degradation assays; in vitro uridylation assays were performed as described previously[20,26,27] except with the addition of 10 µM cold competitor uridine triphosphate and immunopurified Dis3l2 where indicated.

[4] = molecular target: T4, Dis3l2 D389N (Flag) (Mus musculus, UniProt Q8CI75 Q8CI75:1-870, D389N); assay: EMSA; retains binding though catalytically inactive; settings: tags: Flag, immunopurified from V6.5 ESC; label: 5'-32P; hairpin with 3' oligoU tail
T4 sequence: T2 sequence

B1: mmu-pre-let-7a-1+14U (ssRNA)
RNA: UGAGGUAGUAGGUUGUAUAGUUUUAGGGUCACACCCACCACUGGGAGAUAACUAUACAAUCUACUGUCUUUCCUUUUUUUUUUUUUU
binding result [1]: binds
binding result [2]: binds
activity [3]: > 10 fold
binding result [4]: binds
